The nanobody polyreactivity screen of Harvey et al. (2022)

Assay: yeast display, Sf9 membrane polyspecificity reagent, FACS + sequencing; frameworks hold sequencing errors
Procedure, shortened: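 Galactose induction of a Saccharomyces cerevisiae BJ5465 synthetic nanobody display library ran 36–48 hours. The cells were then stained for 1 hour at 4 °C with 10% biotinylated, detergent-solubilized Sf9 membrane reagent, pulled down on streptavidin microbeads and FACS-sorted into low and high (top ~1%) gates on expression and reagent-binding fluorescence. Labels for polyreactivity follow the gate of origin.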

Sequence	polyreactivity (PSR sort gate)
QFQLVESGGGLVQAGGSLRLSCAASGFIFKRYTMGWYRQAPGKERELVAAISFSGGSTYYADSVKGRFTISRDNAKNTVYLQMNSLKPEDTAVYYCAKVYRVVPATQKEYGYWGQGTQVTVSS	high polyreactivity
QFQLVESGGGLVQAGGSLRLSCAASGFIFKSNAMGWYRQAPGKERELVAAITKRGGSTYYADSVKGRFTISGDYAKNTVYLQMNSLKPEDTAVYYCAVRKPYSRYTVNYDSWGQGTQVTVSS	high polyreactivity
QFQLVESGGGLVQAGGSLRLSCAASGFIFPLYTMGWYRQAPGKETELVAAIDGGGTTYADSVKGRFTISRDNAKNTVYLQMNSLKPEDTAVYYCAADWYYQYSIYRYGYWGQGTQVTVSS	low polyreactivity
QFQLVESGGGLVQAGGSLRLSCAASGFIFQRYAMGWYRQAPGKERELVAAINFSGGSTYYADSVKGRFTISRDNAKNTVYLQMNSLKPEDTAVYYCNTGNITQTKSIFDYWGQGSQVTVSS	high polyreactivity
QFQLVESGGGLVQAGGSLRLSCAASGFIFTNYAMGWYRQAPGKEWELVAAINRSGGRTYYADSVKGRFTISRDNAKNTVYLQMNSLKPEDNAVYYCAAKGVSYRPAYDYWGQGTQVTVSS	high polyreactivity
QFQLVESGGGLVQAGGSLRLSCAASGFNFGWYDMGWYRQAPGKERELVASISWSGSSTYYADSVKGRFTISRDNAKNTVYLQMNSLKPEDTAVYYCATPYWRRYDYWGQGTQVTVSS	high polyreactivity
QFQLVESGGGLVQAGGSLRLSCAASGFTFSGYAMGWYRQAPGKERELVAAINWRGDSTYYADSVKGRFTISRDNAKNTVYLHMNSLKPEDTAVYYCYVVLGPQRYSTDYGYWGQGTQVTVSS	high polyreactivity
QFQLVESGGGLVQAGGSLRLSCAASGFTFTVYAMGWYRQAPGKERELVAAITRGTSTYADSVKGRFTISRDNAKNTVYLQMNSLKPEDTAVYYCAARSSPWYTRYRSSELFDYWGQGTQVTVSS	high polyreactivity
QFQLVESGGGLVQAGGSLRLSCAASGFTIGPYTMAWYRQAPGKERELVAAISYSGASTYYADSVKGRFTISRDNAKNTVYLQMNSLKPEDTAVYYCNTVYRFTRARYPYDYWGQGTQVTVSS	high polyreactivity
QFQLVESGGGLVQAGGSLRLSCAASGFTSYRNALGWYRQAPGKERELVAAISRGDSTYYADSVKGRFTISRDNAKNTVYLQMNSLKAEDTAVYYCATPPTVYGWLAGYDYWGQGTQVTVSS	low polyreactivity
QFQLVESGGGLVQAGGSLRLSCAASGIIFYENNMGWYRQAPGKERELVAAINSGGSTYYADSVKGRFTISRDNAKNTVYLQMNSLKPEDTAVYYCDADDYSGLYYSSTYRYEYWGQGTQVTVSS	low polyreactivity
QFQLVESGGGLVQAGGSLRLSCAASGINFSSYVMGWYRQAPGKERELVAAISKSGARTSYADSVKGRFSISRDNAKNTVYLQMNSLKPEDTAVYYCNAYTESWYPIYFFGWSYTAVDYWGQGTQVTVSS	low polyreactivity
QFQLVESGGGLVQAGGSLRLSCAASGITFYRYAMGWYRQAPGKERELVASISSRGSSTYYADSVKGRFTISRDNAKNTVYLQMNSLKPEDTAVYYCAKSRGSRGFVASTYNYWGQGTQVTVSS	high polyreactivity
QFQLVESGGGLVQAGGSLRLSCAASGLIFYFYAMGWYRQAPGKEREFVAAISSGGDTYYADSVKGRFTISRDNAKNTVYLQMNSLKPEDNAVYYCAARRYRRGRSDYWGQGTQVTVSS	high polyreactivity
QFQLVESGGGLVQAGGSLRLSCAASGRIFARNTMGWYRQAAGKERELVAAITYSGGNTYYADSVKGRFTISRDNAKNTVYLQMNSLKPEDTAVYDCNKASFGRLRKKIMDYWGQGTQVTVSS	high polyreactivity
QFQLVESGGGLVQAGGSLRLSCAASGRIFCSYAMGWYIQAPGKERELVAAITSGGSTNYADSVKARFTISRDNAKNTVYLLMNSLKQEDTAVYYCADVEYLRESDYWGQGTQVTVSS	low polyreactivity
QFQLVESGGGLVQAGGSLRLSCAASGRIFGGYAMGWYRQAPVKERELVAAIRDSGRTYYADSVKGRFTISRDNAKNTVYLQMNSLKQEDTAVYYFAADAHSTYAPFRWYDYCGQGTQVTVSS	low polyreactivity
QFQLVESGGGLVQAGGSLRLSCAASGRIFRYYDMGWYRQAPGKERELVAAISFSGGSTYYADSVKGRFTISRDNAKNTVYLQMNSLKQEDTAVYYCAAGWRALYLSTYDYWGQGTQVTVSS	high polyreactivity
QFQLVESGGGLVQAGGSLRLSCAASGRIFVYNDMVWYRQAPGKEREFVATITSSGGRTYYADSVKGRFTISRDNAKNTVYLQMNRLKPEDTAVYYCNKVGYSNLLGYDYWGQGTQVTVSS	high polyreactivity
QFQLVESGGGLVQAGGSLRLSCAASGRIFYKYVMGWYRQAPGKERELVAAINRSGGTTYYADSVKGRFTISRDNAKNTVYLQMNSLKPEDTAVYYCNATLPDYWPYYYYQGGDDYWGQGTQVTVSS	low polyreactivity
QFQLVESGGGLVQAGGSLRLSCAASGRIFYSYAMGWYRQAPGKERELVAAISRSGTSTFYADSLKGRFTISRDNAKNTVYLQMNSLKPEDTAVYYCNAVISPYVIRSEYWGQGTQVTVSS	low polyreactivity
QFQLVESGGGLVQAGGSLRLSCAASGRIFYYYAMGWDRQAPGKERELVASINSVGTTTYADSVKGRFTISRDNAKNTVYLQMNSLKPEDTAVYYCARDTGSIYYDGYEYDYWGQGTQVTVSS	low polyreactivity
QFQLVESGGGLVQAGGSLRLSCAASGRTFVINAMGWYRQAPGKERELVAAISRGGSRTFYADSVKGLFTISRDTAKNTVYLQMNSLKPVDTAVYYCNAVAQSGRYDYWGQGTQVTVSS	high polyreactivity
QFQLVESGGGLVQAGGSLRLSCAASGRTLYGYAMGLYRQAPGKERELVAAISGSGTITYYADSVKGRFTISRDNAKNTVYLQMNSLKPEDTAVYYCNKRRAGQSRRVDSWGQGTQVTVSS	high polyreactivity
QFQLVESGGGLVQAGGSLRLSCAASGSIFISNAMGWYRQAPGKERDLVAAISWTSGSTYYADSVKGRFTISRDNAKNTVYLQMNSLKPVDTAFYYCAALGGAALDWGVVEVGYWGKGTQVTVSS	low polyreactivity
QFQLVESGGGLVQAGGSLRLSCAASGSIFSVYTMGWYRQAPGKERELVAAISTGGGSTYYADSVKGRFTISRDNAKNTVYLQMNSLKPEDTAVYYCATDYGWAPSYWYDSCGQGTQVTVSS	low polyreactivity
QFQLVESGGGLVQAGGSLRLSCAASGSIFTYNVMGWYRQAPRKERELVAAISDGDGSTYADSVKGRFTISRDNAKNTVYLQMNSLKPEDTAVYYCAAVDGRYLGGFNSRDGDWGQGTQVTVSS	low polyreactivity
QFQLVESGGGLVQAGGSLRLSCAASGSTFGYYAMGWYRQAPGKERELVAAISWSGDSTYYADSVKGRFSISRDNAKNTVYLQMNSLKPEDTAVYYCAAEVEYGYDYWGQGTQVTVSS	high polyreactivity
QFQLVESGGGLVQAGGSLRLSCAASGSTFKSYAMGWYRQAPGKEREFVAVITWSGGRTSYADSVKGRFTISRDNAKNTVYLQMNSLKPEDTAVYYCAAKAASRYRAFTYDYWGQGTQVTVSS	low polyreactivity
QFQLVESGGGLVQAGGSLRLSCAASGSTFPYYAMGWYRQAPGNERELVASIRKRGGGTYYADSVKGRFTISRDNAKNTVYFQMNILKPEDTAVYYCAVRVYQFRYTGYDYWGQGTQVTVSS	high polyreactivity
